This note sets out measurements from publication PMC10120035, “HY5 functions as a systemic signal by integrating BRC1-dependent hormone signaling in tomato bud outgrowth”.

To fix the notation:
B1: GA2ox4-B WT (dsDNA)
DNA 1: TCCCAAATTTTCGAATTATTAGGGGACCATTTTTTTTAAAAAAA
DNA 2: TTTTTTTAAAAAAAATGGTCCCCTAATAATTCGAAAATTTGGGA
B2: GA2ox4-B mut (dsDNA)
DNA 1: TCCCAAATTTTCGAATTATTAGAAAAAAATTTTTTTTAAAAAAA
DNA 2: TTTTTTTAAAAAAAATTTTTTTCTAATAATTCGAAAATTTGGGA
B3: LOG4-A WT (dsDNA)
DNA 1: AGTAATCCTATTAGAAAAATGGGCCATGGACCTTGCCTTACCTAC
DNA 2: GTAGGTAAGGCAAGGTCCATGGCCCATTTTTCTAATAGGATTACT
B4: LOG4-A mut (dsDNA)
DNA 1: AGTAATCCTATTAGAAAAATAAAAAATGGACCTTGCCTTACCTAC
DNA 2: GTAGGTAAGGCAAGGTCCATTTTTTATTTTTCTAATAGGATTACT
B5: CKX7-A WT (dsDNA)
DNA 1: CCCCGACATCTAAAGAGTGGGCCCAAATATCAGATAAATCAAGAACA
DNA 2: TGTTCTTGATTTATCTGATATTTGGGCCCACTCTTTAGATGTCGGGG
B6: CKX7-A mut (dsDNA)
DNA 1: CCCCGACATCTAAAGAGTAAACAAAAATATCAGATAAATCAAGAACA
DNA 2: TGTTCTTGATTTATCTGATATTTTTGTTTACTCTTTAGATGTCGGGG
B7: GA2ox5-A WT (dsDNA)
DNA 1: CAATTGTTTTGTGGGGAAAGGGTGCCCTTTCTTTTTTATTCCAA
DNA 2: TTGGAATAAAAAAGAAAGGGCACCCTTTCCCCACAAAACAATTG
B8: GA2ox5-A mut (dsDNA)
DNA 1: CAATTGTTTTGTGGGGAAAGAATGAACTTTCTTTTTTATTCCAA
DNA 2: TTGGAATAAAAAAGAAAGTTCATTCTTTCCCCACAAAACAATTG

The target in this data set is BRC1 (His-BRC1) (Solanum lycopersicum (tomato), UniProt A0A3Q7HTP5 1-406). The experiment in a line: EMSA; Light Shift Chemiluminescent EMSA kit (Thermo 20148) per manufacturer; buffer, salt, pH and temperature not stated. The settings on record: protein: recombinant; tags: His (pET-32a); chain copies: 2; label: 3' biotin (probe); blunt.
Sequence of BRC1 (His-BRC1) (A0A3Q7HTP5 entry or part of it): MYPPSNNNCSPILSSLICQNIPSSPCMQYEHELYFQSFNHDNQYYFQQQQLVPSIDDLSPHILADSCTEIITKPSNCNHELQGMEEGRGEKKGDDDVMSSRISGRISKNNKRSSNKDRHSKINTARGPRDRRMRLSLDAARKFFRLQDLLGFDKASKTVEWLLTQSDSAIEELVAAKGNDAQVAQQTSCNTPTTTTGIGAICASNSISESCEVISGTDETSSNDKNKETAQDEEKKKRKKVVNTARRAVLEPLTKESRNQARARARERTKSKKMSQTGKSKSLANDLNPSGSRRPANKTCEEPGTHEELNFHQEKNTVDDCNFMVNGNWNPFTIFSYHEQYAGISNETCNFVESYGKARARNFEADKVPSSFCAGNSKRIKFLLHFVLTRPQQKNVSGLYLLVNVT
Consider B1, for which the binding result is “binds”. With B2 the entry was “no binding”; with B3, “binds”; with B4, “no binding”. With B5 the entry was “binds”; with B6, “no binding”; with B7, “binds”. Next, B8: “no binding”.
